Assay results reported in US20220281960A1 (RAMOT AT TEL AVIV UNIVERSITY, published 2022).

Biological target: T1, maltose binding protein (UniProt P0AEX9 27-396 = MBP)
T1 construct: also called MBP; carrier protein
Test: ELISA on coated MBP

B1: P4-36 (antibody, V domains shown)
VH: EVQLVESGGGLVQPGRSLRLSCTDSGFTFSEYALSWVRQAPGKGLEWVGFIRSKAYGGTTEYAASVKGRFTISRDDSKSVAYLQMNSLKTEDTAVYFCTGPRPYYDSSGYYPYYFDYWGQGTLVTVSS
VL: QSALTQPRSVSGSPGQSVTISCTGSRSDVGGYDYVSWYQQHPGRVPKLMIYDVTKRPSGVPDRFSGSRSGNTASLTISGLQADDEADYYCSSFAGSSTYVVFGGGTTLTVL
notes: also called mAb P4-36; clone 3 antibody P4-36
Question: Does B1 bind?
Answer: no binding
